Six molecules from US20160194394A1 (GOVERNING COUNCIL OF THE UNIVERSITY OF TORONTO, published 2016) can be followed below.

The target in test [1] is T1, recombinant Frizzled receptor 7 (FZD7) cysteine-rich domain (CRD) fused to the Fc region of human IgG (human, UniProt O75084 33-185). The experiment in a line: ELISA, 1ug/ml (20nM) Fab [cont'd]. In short, it runs like this: (§1)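 Plates coated with 2 ug/ml FZD7-Fc or Fc protein were probed with bacterially expressed purified Fabs for 1 h at room temperature in 0.5% BSA/0.05% Tween20/PBS. Bound Fab detected with anti-FLAG-HRP for 45 min, developed with TMB and acid stop, and read as absorbance at 450 nm; n.t. = not tested.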
(In an ELISA, binding on a coated surface is turned into a signal by an enzyme label.)

Test [2] has as its target T2, Fc control protein.
T2 construct: also called Fc protein; control Fc protein
The experiment in a line: ELISA, 1ug/ml (20nM) Fab [cont'd]. In short, it runs like this: as §1

Test [3] concerns the target T1, recombinant Frizzled receptor 7 (FZD7) …. The experiment in a line: ELISA, 10ug/ml (200nM) Fab [cont'd]. The method, boiled down: as §1
Test [4] has as its target T2, Fc control protein. Kind of test: ELISA, 10ug/ml (200nM) Fab [cont'd]. The method, boiled down: as §1
Test [5] concerns the target T3, FZD7 receptor expressed on cells (full-length) (UniProt O75084 33-574, limits assumed).
T3 construct: whole, on cells; MDA MB 231 cells may carry other Frizzled receptors too; also called full-length FZD7 receptor; endogenous receptor on MDA MB 231 cells
Kind of test: flow cytometry, 200 nM Fab, MDA MB 231 [cont'd]. In short, it runs like this:
(§2)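 EDTA-harvested MDA MB 231 cells, either FZD7-overexpressing or with endogenous receptor, were blocked in 2% FBS/PBS and stained with Fab for 30 min on ice. Detection used anti-F(ab′)₂-APC (1:1000, 15 min on ice), then 1% paraformaldehyde fixation and flow cytometry. Values are percent of cells in positive gates.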
On the technique in general: In flow cytometry, cells or beads pass a laser one at a time.

For test [6], the target named is T3, FZD7 receptor expressed on cells …. Kind of test: flow cytometry, 200 nM Fab, FZD7 over-expression line (MDA MB 231) [cont'd]. In short, it runs like this:
as §2

Substitutions are numbered along the chain they refer to.

B1: G9 (Fab)
light: DIQMTQSPSSLSASVGDRVTITCRASQSVSSAVAWYQQKPGKAPKLLIYSASSLYSGVPSRFSGSRSGTDFTLTISSLQPEDFATYYCQQYYYSSPITFGQGTKVEIKRTVAAPSVFIFPPSDSQLKSGTASVVCLLNNFYPREAKVQWKVDNALQSGNSQESVTEQDSKDSTYSLSSTLTLSKADYEKHKVYACEVTHQGLSSPVTKSFNRGECGGS
heavy: EVQLVESGGGLVQPGGSLRLSCAASGFNISYYYIHWVRQAPGKGLEWVAYISPSSGYTSYADSVKGRFTISADTSKNTAYLQMNSLRAEDTAVYYCARGYPVYSWVWSFGAFDYWGQGTLVTVSSASTKGPSVFPLAPSSKSTSGGTAALGCLVKDYFPEPVTVSWNSGALTSGVHTFPAVLQSSGLYSLSSVVTVPSSSLGTQTYICNVNHKPSNTKVDKKVEPKSC
notes: selection round 3; also called Fzd7-R3-G9
With B1, the “OD 450” value came to 3.12 in test [1], 0.06 with Fc control protein [2], 3.21 in test [3] and 0.16 with Fc control protein [4]. In addition, the “% population within the positive gate” value in test [5] is 6.1%; in test [6] it was 84.7%.

B2: B10 (Fab)
light: DIQMTQSPSSLSASVGDRVTITCRASQSVSSAVAWYQQKPGKAPKLLIYSASSLYSGVPSRFSGSRSGTDFTLTISSLQPEDFATYYCQQYWASLITFGQGTKVEIKRTVAAPSVFIFPPSDSQLKSGTASVVCLLNNFYPREAKVQWKVDNALQSGNSQESVTEQDSKDSTYSLSSTLTLSKADYEKHKVYACEVTHQGLSSPVTKSFNRGECGGS
heavy: EVQLVESGGGLVQPGGSLRLSCAASGFNISYYYIHWVRQAPGKGLEWVAYISPYYGSTYYADSVKGRFTISADTSKNTAYLQMNSLRAEDTAVYYCARSWSYSYYYSHPGWSPVWAMDYWGQGTLVTVSSASTKGPSVFPLAPSSKSTSGGTAALGCLVKDYFPEPVTVSWNSGALTSGVHTFPAVLQSSGLYSLSSVVTVPSSSLGTQTYICNVNHKPSNTKVDKKVEPKSC
notes: selection round 3; also called Fzd7-R3-B10
As for B2, the “OD 450” value in test [1] amounted to 3.22; in the test with Fc control protein [2], 0.06; in test [3], 3.24; with Fc control protein [4] it was 0.06. Besides, the “% population within the positive gate” value in test [5] is 98.2%; in test [6], 93.7%.

B3: D9 (Fab)
light: B2 light with Y91S, W92S, A93Y
heavy: EVQLVESGGGLVQPGGSLRLSCAASGFNLSYSSMHWVRQAPGKGLEWVASIYSSYSSTSYADSVKGRFTISADTSKNTAYLQMNSLRAEDTAVYYCARGAGYYWWHYYYVHGAMDYWGQGTLVTVSSASTKGPSVFPLAPSSKSTSGGTAALGCLVKDYFPEPVTVSWNSGALTSGVHTFPAVLQSSGLYSLSSVVTVPSSSLGTQTYICNVNHKPSNTKVDKKVEPKSC
notes: selection round 3; also called Fzd7-R3-D9
As to B3, the “OD 450” value was 3.05 in test [1], 0.06 with Fc control protein [2], 3.12 in test [3] and 0.09 with Fc control protein [4]. In addition, the “% population within the positive gate” value in test [5] is 0.7%; in test [6] it was 80.9%.

B4: B2 (Fab)
light: B2 light with Y91S, W92S, A93Y
heavy: EVQLVESGGGLVQPGGSLRLSCAASGFNLSYSYMHWVRQAPGKGLEWVASIYSSYGYTSYADSVKGRFTISADTSKNTAYLQMNSLRAEDTAVYYCARYYGWAYYYSYFPAWAGGGIDYWGQGTLVTVSSASTKGPSVFPLAPSSKSTSGGTAALGCLVKDYFPEPVTVSWNSGALTSGVHTFPAVLQSSGLYSLSSVVTVPSSSLGTQTYICNVNHKPSNTKVDKKVEPKSC
notes: selection round 3; also called Fzd7-R3-B2
Regarding B4, the “OD 450” value in test [1] turned out to be 2.92; in the test with Fc control protein [2], 0.06; in test [3] it was 3.18; with Fc control protein [4], 0.1. In addition, the “% population within the positive gate” value in test [5] came to 15.9%; in test [6], 86.2%.

B5: G7 (Fab)
light: DIQMTQSPSSLSASVGDRVTITCRASQSVSSAVAWYQQKPGKAPKLLIYSASSLYSGVPSRFSGSRSGTDFTLTISSLQPEDFATYYCQQYGYWWVSLFTFGQGTKVEIKRTVAAPSVFIFPPSDSQLKSGTASVVCLLNNFYPREAKVQWKVDNALQSGNSQESVTEQDSKDSTYSLSSTLTLSKADYEKHKVYACEVTHQGLSSPVTKSFNRGECGGS
heavy: EVQLVESGGGLVQPGGSLRLSCAASGFNLYYYSIHWVRQAPGKGLEWVASIYSYSSYTYYADSVKGRFTISADTSKNTAYLQMNSLRAEDTAVYYCARWWPGHYSGYGSGALDYWGQGTLVTVSSASTKGPSVFPLAPSSKSTSGGTAALGCLVKDYFPEPVTVSWNSGALTSGVHTFPAVLQSSGLYSLSSVVTVPSSSLGTQTYICNVNHKPSNTKVDKKVEPKSC
notes: selection round 3; also called Fzd7-R3-G7
With B5, the “OD 450” value in test [1] was 1.9; with Fc control protein [2], 0.06; in test [3], 2.98; with Fc control protein [4], 0.13. Moreover, the “% population within the positive gate” value in test [5] is 15.3%; in test [6], 84.2%.

B6: B9 (Fab)
light: B5 light with Y91W, G92W, Y93A, W94S, W95G, S97G, L98P
heavy: EVQLVESGGGLVQPGGSLRLSCAASGFNLYSSSIHWVRQAPGKGLEWVAYISSYYSSTYYADSVKGRFTISADTSKNTAYLQMNSLRAEDTAVYYCARPAMDYWGQGTLVTVSSASTKGPSVFPLAPSSKSTSGGTAALGCLVKDYFPEPVTVSWNSGALTSGVHTFPAVLQSSGLYSLSSVVTVPSSSLGTQTYICNVNHKPSNTKVDKKVEPKSC
notes: selection round 3; also called Fzd7-R3-B9
Take B6: the “OD 450” value in test [1] was 3.22; with Fc control protein [2] it was 0.05; in test [3], 3.26; in the test with Fc control protein [4], 0.06. Moreover, the “% population within the positive gate” value in test [5] came out at 46.7%; in test [6], 91.5%.
